Source: US20080242590A1, “New Method 706” (ASTRAZENECA AB, priority 2007, published 2008)

What was measured:
[1] = Pharmacokinetics of Fc-Nep and commercial neprilysin, single i.v. dose (Example 20); type: in vivo; details: mice, single i.v. dose 1 alternatively 5 mg/kg
Experimental: (§1) The Fc-Nep fusion protein was developed to improve the pharmacokinetic entities of neprilysin with the specific aims to reduce clearance and improve half-life. To test this we have administrated a single i.v. dose of either 1 mg/kg commercial neprilysin or 1 alternatively 5 mg/kg in-house produced Fc-Nep to mice. At set times after dosing blood samples were drawn from the tail vein or by heart puncture at termination. Upon sampling into tubes containing EDTA the aliquots were put on ice. Plasma was prepared by centrifugation within 15 minutes of sampling (typically 1500 g at 4° C. for 10 min) and immediately frozen. Plasma concentrations of Fc-Nep and neprilysin were determined via immunoassays using either anti-Nep for commercial neprilysin or anti-human IgG for Fc-Nep as capture antibodies while both substances were detected via an anti-Nep antibody. Pharmacokinetic parameters are calculated using a software package (WinNonlin, Pharsight Corporation, USA) and in this example experiment the calculated half-life had increased from about 5 minutes for Nep to about 20 hours for Fc-Nep.

soluble Aβ40 = assay: Soluble Aβ40 in plasma after acute i.v. treatment (Example 23); type: in vivo, APPSWE-transgenic mice
Experimental: (§2) The objective with this study was to evaluate the time and dose-response effect of Fc-Nep in plasma of female APPSWE-tg mice after acute intraveneous treatment. The specific purpose is to find an effect on plasma Aβ40 and Aβ42. The γ-secretase inhibitor M-550426 is included as a reference compound.
(§3) 25-31 weeks old female APPSWE-transgenic mice (10 mice/group) received vehicle or the Fc-Nep at 1 or 5 mg/kg as a single intravenous injections. As a reference compound, 300 μmol/kg of the γ-secretase inhibitor M-550426 was used and these animals was treated in 3 hours (4 mice). […] Blood was sampled from vehicle- and compound-treated animals at 1.5 and 3 hours after dose. Blood was withdrawn from anaesthetized mice by heart puncture into pre-chilled microtainer tubes containing EDTA. Blood samples were immediately put on ice prior to centrifugation. Plasma was prepared by centrifugation for 10 minutes at approximately 3000×g at +4° C. within 20 minutes from sampling. After blood sampling, mice were terminated. Aβ40 and Aβ42 levels in plasma were analyzed by commercial ELISA kit obtained from Biosource and Innogenetics, respectively.

soluble Aβ42 = assay: Soluble Aβ42 in plasma after acute i.v. treatment (Example 23); type: in vivo, APPSWE-transgenic mice
Experimental: as §2, §3

[2] = Plasma exposure (Example 23); type: in vivo, APPSWE-transgenic mice; details: for Mean plasma exposure: 1.5 hours; for Plasma exposure: 3 hours
Experimental: as §1, §3
The concentrations of Fc-Nep in plasma and in the formulations were assayed according to the procedures described in Example 20. The exposure in plasma was analysed in samples from non-treated animals (blank) and in samples from animals treated with M550426.

Aβ40 = assay: Plasma Aβ40 time-response after single i.v. dose (Example 25); type: in vivo, C57BL/6 mice; details: 5 mg/kg single i.v., all time points (1.5, 6, 12, 24, 36, 72 and 168 hours)
Experimental: The objective of this study was to evaluate the time-response relationship of the hFc-Nep in plasma of female C57BL/6 mice after a single dose. The specific purpose is to find how long the reducing effect of hFc-Nep stays in the plasma, and to correlate the effect to the level of exposure of test compound in plasma. The γ-secretase inhibitor M-550426 is included as a positive compound.
(§4) 20-21 weeks old female C57BL/6 mice (8 mice/group) received vehicle or hFc-Nep at 5 mg/kg as a single intravenous injection and Aβ40 was analysed at different time points after injection (between 1.5-168 hours, i.e., up to 1 week). The γ-secretase inhibitor M-550426 was given per orally and the animals were treated for 3 hours. A blank group was also included in the study. […] Blood collection, plasma processing and measurement of mouse Aβ40 levels in plasma were basically as described in Example 27.

[3] = Observations of animal health (Example 25); type: in vivo, C57BL/6 mice; details: 5 mg/kg single i.v., up to 168 hours
Experimental: as §4

amyloid β 1-40 [4] = assay: Degradation of Aβ 1-40 in human plasma pool (Example 28); type: biochemical; details: room temperature, 1 hour
Experimental: Blood from twelve individuals (6 females and 6 males) were collected into pre-chilled heparin-plasma tubes at the healthcare centre (AstraZeneca) at three different time points. Plasma was prepared by centrifugation at 2500×g for 20 min at 4° C. Plasma samples were collected and transferred to pre-chilled polypropylene tubes and immediately frozen and stored at −70° C. prior to use. Plasma was thawed and pooled from 12 individuals just before the experiment. Aβ 1-40 and 1-42 in plasma pool was degraded by human Fc-Nep or mouse Fc-Nep with corresponding vehicles (50 mM Tris-HCl, 150 mM NaCl pH 7.5). The following final concentrations of the Fc-Nep constructs were used, 100, 32, 10, 3.2, 1, 0.3, 0.1 and […] and the degradation occurred at room temperature for 1 hour while shaking on an orbital shaker. The enzymatic reaction was stopped by adding Phosphoramidone (10 μM final concentration). Concentration of amyloid β 1-40 in human plasma pool was measured using ELISA kit (Biosource; KHB3481) according to the manufacturers instructions.

amyloid β 1-40 [5] = assay: Degradation of Aβ 1-40 in APPswe-tg mouse plasma pool (Example 28); type: biochemical; details: room temperature, 1 hour
Experimental: Mouse plasma collected from 9 animals was stored at −70° C. Plasma was thawed and pooled just before the experiment. Aβ 1-40 and 1-42 in plasma pool was degraded by human Fc-Nep or mouse Fc-Nep with corresponding vehicles (50 mM Tris-HCl, 150 mM NaCl pH 7.5). […] The enzymatic reaction was stopped by adding Phosphoramidone (10 μM final concentration).
After degradation, before concentration of amyloid β 1-40 in tg-mouse plasma pool was measured using ELISA kit (Biosource; KHB3481), the plasma samples were diluted 20 times in standard diluent buffer, according to manufacturers instructions.

[6] = highest concentration 100 μg/ml

B1: Fc-Neprilysin: extracellular domain of human Neprilysin fused to the human IgG2 Fc domain (including hinge), Fc at N-terminus; SEQ ID NO 11 (protein)
chain: ERKCCVECPPCPAPPVAGPSVFLFPPKPKDTLMISRTPEVTCVVVDVSHEDPEVQFNWYVDGVEVHNAKTKPREEQFNSTFRVVSVLTVVHQDWLNGKEYKCKVSNKGLPAPIEKTISKTKGQPREPQVYTLPPSREEMTKNQVSLTCLVKGFYPSDIAVEWESNGQPENNYKTTPPMLDSDGSFFLYSKLTVDKSRWQQGNVFSCSVMHEALHNHYTQKSLSLSPGKYDDGICKSSDCIKSAARLIQNMDATTEPCTDFFKYACGGWLKRNVIPETSSRYGNFDILRDELEVVLKDVLQEPKTEDIVAVQKAKALYRSCINESAIDSRGGEPLLKLLPDIYGWPVATENWEQKYGASWTAEKAIAQLNSKYGKKVLINLFVGTDDKNSVNHVIHIDQPRLGLPSRDYYECTGIYKEACTAYVDFMISVARLIRQEERLPIDENQLALEMNKVMELEKEIANATAKPEDRNDPMLLYNKMTLAQIQNNFSLEINGKPFSWLNFTNEIMSTVNISITNEEDVVVYAPEYLTKLKPILTKYSARDLQNLMSWRFIMDLVSSLSRTYKESRNAFRKALYGTTSETATWRRCANYVNGNMENAVGRLYVEAAFAGESKHVVEDLIAQIREVFIQTLDDLTWMDAETKKRAEEKALAIKERIGYPDDIVSNDNKLNNEYLELNYKEDEYFENIIQNLKFSQSKQLKKLREKVDKDEWISGAAVVNAFYSSGRNQIVFPAGILQPPFFSAQQSNSLNYGGIGMVIGHEITHGFDDNGRNFNKDGDLVDWWTQQSASNFKEQSQCMVYQYGNFSWDLAGGQHLNGINTLGENIADNGGLGQAYRAYQNYIKKNGEEKLLPGLDLNHKQLFFLNFAQVWCGTYRPEYAVNSIKTDVHSPGNFRIIGTLQNSAEFSEAFHCRKNSYMNPEKKCRVW
With B1 the calculated half-life [1] was “about 20 hours”, the “Change in plasma Aβ40” value (soluble Aβ40; 1 and 5 mg/kg i.v., 3 hours after dose) was “No significant changes” and the “Reduction of soluble Aβ40 in plasma compared to vehicle” value (soluble Aβ40; 1 or 5 mg/kg i.v., 1.5 hours after dose, P<0.05) was “approximately 20%”. For the same molecule, the “Change in plasma Aβ42” value (soluble Aβ42; 1 mg/kg i.v., 1.5 hours) was “No significant change”, the “Reduction of Aβ42 in plasma compared to vehicle” value (soluble Aβ42; 5 mg/kg i.v., 1.5 hours, P<0.05) was “approximately 20%” and the “Change in plasma Aβ42” value (soluble Aβ42; any of the doses (1 and 5 mg/kg), 3 hours) was “No significant changes”. It also gave a Mean plasma exposure ([2]; 1 mg/kg i.v.) of 9.8 µg/mL, a Plasma exposure ([2]; 1 mg/kg i.v.) of 7.6 µg/mL and a Mean plasma exposure ([2]; 5 mg/kg i.v.) of 33.6 µg/mL. The Plasma exposure ([2]; 5 mg/kg i.v.) was 27.3 µg/mL, the “Aβ40 reduction in plasma compared to vehicle” value (Aβ40) was 67-80% and the “Observations of the animal health” value [3] was “no overt adverse effects”. For the same molecule, the “Degradation of amyloid β 1-40 compared to plasma without treatment” value (amyloid β 1-40 [4]; [6]) was 66%, the EC50 (amyloid β 1-40 [4]) was 580 nM and the “Degradation of amyloid β 1-40 compared to plasma without treatment” value (amyloid β 1-40 [5]; [6]) was 71%. The EC50 (amyloid β 1-40 [5]) was 470 nM.
